The assay has as its target Recombinant SARS-CoV-2 S1 (SARS-CoV-2). The assay is described as follows: MST.

B1: Recombinant DC-SIGN/CD209 (receptor)
chain: QVSKVPSSISQEQSRQDAIYQNLTQLKAAVGELSEKSKLQEIYQELTQLKAAVGELPEKSKLQEIYQELTRLKAAVGELPEKSKLQEIYQELTWLKAAVGELPEKSKMQEIYQELTRLKAAVGELPEKSKQQEIYQELTRLKAAVGELPEKSKQQEIYQELTRLKAAVGELPEKSKQQEIYQELTQLKAAVERLCHPCPWEWTFFQGNCYFMSNSQRNWHDSITACKEVGAQLVVIKSAEEQNFLQLQSSRSNRFTWMGLSDLNQEGTWQWVDGSPLLPSFKQYWNRGEPNNVGEEDCAEFSGNGWNDDKCNLAKFWICKKSAASCSRDEEQFLSPAPATPNPPPA
In general, Kd refers to the equilibrium constant for the complex coming apart. For B1, the Kd came to 3.76 nM.

B2: Recombinant L-SIGN/CD299 (receptor)
chain: QVSKVPSSLSQEQSEQDAIYQNLTQLKAAVGELSEKSKLQEIYQELTQLKAAVGELPEKSKLQEIYQELTRLKAAVGELPEKSKLQEIYQELTRLKAAVGELPEKSKLQEIYQELTRLKAAVGELPEKSKLQEIYQELTELKAAVGELPEKSKLQEIYQELTQLKAAVGELPDQSKQQQIYQELTDLKTAFERLCRHCPKDWTFFQGNCYFMSNSQRNWHDSVTACQEVRAQLVVIKTAEEQNFLQLQTSRSNRFSWMGLSDLNQEGTWQWVDGSPLSPSFQRYWNSGEPNNSGNEDCAEFSGSGWNDNRCDVDNYWICKKPAACFRDE
For B2, the Kd is 3.27 nM.

The record behind these values is paper PMC8582233 (2021).
